{"source": "patent US11795454B2", "about": "“Targeted delivery system” (Cedars-Sinai Medical Center, priority 2009, dated 2023)", "molecules": {"B1": {"name": "HerDox: self-assembled nanoparticle of oligonucleotide duplex, doxorubicin and HerPBK10 (conjugate)", "chain": "LPPRLKEMKSQESAAGSKLVLRCETSSEYSSLRFKWFKNGNELNRKNKPQNIKIQKKPGKSELRINKASLADSGEYMCKVISKLGNDSASANITIVESNEIITGMPASTEGAYVSSESPIRISVSTEGANTSSSTSTSTTGTSHLVKCAEKEKTFCVNGGECFMVKDLSNPSRYLCKCQPGFTGARCTENVPMKVQNQEKAEELYMRRAAMYEEGPPPSYESVVSAAPVAAALGSPFDAPLDPPFVPPRYLRPTGGRNSIRYSELAPLFDTTRVYLVDNKSTDVASLNYQNDHSNFLTTVIQNNDYSPGEASTQTINLDDRSHWGGDLKTILHTNMPNVNEFMFTNKFKARVMVSRLPTKDNQVELKYEWVEFTLPEGNYSETMTIDLMNNAIVEHYLKVGRQNGVLESDIGVKFDTRNFRLGFDPVTGLVMPGVYTNEAFHPDIILLPGCGVDFTHSRLSNLLGIRKRQPFQEGFRITYDDLEGGNIPALLDVDAYQASLKDDTEQGGGGAGGSNSSGSGAEENSNAAAAAMQPVEDMNDHAIRGDTFATRAEEKRAEAEAAAEAAAPAAQPEVEKPQKKPVIKPLTEDSKKRSYNLISNDSTFTQYRSWYLAYNYGDPQTGIRSWTLLCTPDVTCGSEQVYWSLPDMMQDPVTFRSTRQISNFPVVGAELLPVHSKSFYNDQAVYSQLIRQFTSLTHVFNRFPENQILARPPAPTITTVSENVPALTDHGTLPLRNSIGGVQRVTITDARRRTCPYVYKALGIVSPRVLSSRTFKKKKKKKKKK"}}, "key": {"MDA-MB-435 tumors [1]": {"system": "MDA-MB-435 tumors", "test": "HerDox/Dox tumor targeting, biodistribution and pharmacokinetics by fluorescence imaging", "experimental": "Tumor-bearing mice were injected with 0.02 mg/kg (final Dox dose) of HerDox or Dox via the tail vein and imaged with a custom small animal imager. FIG. 19A, Imaging of live mice after TV delivery of HerDox. Time points are shown as minutes after injection. Tumors are indicated by arrows. FIG. 19B, Imaging of tumors and tissues harvested at 3 h after injection of HerDox or Dox. Fluorescence signal from Dox is pseudo-colored according to the color bar, with a shift toward 100 indicating high fluorescence intensity.\n(§1) FIG. 29A, Live mouse imaging of HerDox at indicated time points after injection. Arrows, Tumors. 29B-29C, Comparative biodistribution of HerDox and Dox in tissues harvested at 3 h post-injection. FIG. 29B, Imaging of biodistribution in harvested tissues. Pseudocolored FI corresponds to the color bar. Max, highest FI. FIG. 29C, Quantification of HerDox and Dox biodistribution, showing Dox FI/tissue. FIG. 29D. Comparative pharmacokinetics of HerDox and Dox in mice with tumors expressing differential HER2. Tissues were harvested from independently injected mice euthanized at indicated time points after injection and FI/tissue acquired using a small animal imaging system as described herein.\nMice received a single tail vein injection of Dox alone or the complex (HerDox) (0.02 mg/kg with respect to Dox conc) and were imaged live using a customized macro-illumination and detection system.\n(§2) Heart rate and body temperature were monitored. […] Three beats were averaged for each measurement.\nA customized macro-illumination and detection system was used for in vivo and tissue imaging. Dox was excited with the 488 nm line of a Coherent Innova ArKr laser. Laser light (300 mW) was directed into a light-tight box via mirrors and expanded by an engineered circular tophat diffuser (Thorlabs ED1-C20) to a uniform circular beam of approximately 15 cm in diameter. The incidence angle to the vertical plane was approximately 150. Fluorescence light was collected via a telecentric lens (Melles-Griot 59LGG925 base lens with a 59LGL428 attachment lens) that can operate at f/#2, has a magnification of 0.9, working distance of 257 mm and a depth of field of 81.5 mm. A bandpass filter (580 nm with a 50 nm bandwidth) was used in the emission pathway to reject the excitation light. Images showing FI were collected with a cooled CCD camera (Hamamatsu ORCA-ER). Where indicated, a Maestro imager was used (Cedars-Sinai Imaging Core Facility). ImageJ was used to calculate average fluorescence intensities of the overall region of each selected tissue.\nMDA-MB-435 tumor-bearing mice were imaged live after a single tail vein injection of HerDox, in order to visualize tumor-targeting ability in vivo."}, "MDA-MB-435 tumors [2]": {"system": "MDA-MB-435 tumors", "test": "Therapeutic efficacy in vivo, daily i.v. injections for 7 days", "set-up": "species or system mouse", "settings": "for tumor growth: 0.004 mg/kg Dox equivalent, daily i.v. for seven days"}, "U87 human glioma tumors": {"system": "U87 human glioma tumors", "experimental": "as §1, §2\nA customized macro-illumination and detection system was used for in vivo and tissue imaging. Dox was excited with the 488 nm line of a Coherent Innova ArKr laser. […] Fluorescence light was collected via a telecentric lens (Melles-Griot 59LGG925 base lens with a 59LGL428 attachment lens) that can operate at f/#2, has a magnification of 0.9, working distance of 257 mm and a depth of field of 81.5 mm. […] ImageJ was used to calculate average fluorescence intensities of the overall region of each selected tissue. […]"}, "MDA-MB-435 (HER2+) cells": {"system": "MDA-MB-435 (HER2+) cells", "test": "HerDox targeted toxicity in vitro, separate cultures", "format": "cell-based, human", "settings": "MDA-MB-435, day 3", "experimental": "(§3) All treatments, N=3. FIG. 27A. Comparing cytotoxicity to HER2+ (MDAMB-435) and HER2− (MDA-MB-231) cells in separate cultures. Left, Relative survival (as % of untreated cells) on day 3 of treatment. Right, Micrograph of live cells after treatment. Control, mock (HBS) treatment. FIG. 27B, Receptor specificity of cytotoxicity. […] FIG. 27C, Toxicity to cells displaying differential HER2. Cytotoxicities from HerDox titrations were assessed on each cell line by metabolic assay and confirmed by crystal violet stain on day 3 of treatment. CD50 values (shown in log scale) were determined by non-linear regression analyses of HerDox killing curves using GraphPad Prism. The relative HER2 level of each cell line is shown next to each CD50 value. FIG. 27D, Targeting in a mixed MDA-MB-435(HER2+,GFP−)/MDA-MB-231(HER2−,GFP+) cell culture. Survival was determined by calculating the relative doubling time (DT) of experimental (exp) cells normalized by mock-treated (con) cells based on crystal violet stains (total cells) and GFP fluorescence (MDAMB-231 cells), and applying DTMDA-MB-435=DTTotal-DTMDA-MB-231 as previously described. Relative survival is shown for Day 2 of treatment. FIG. 27E, Targeted glioma cell death in vitro. U251 cells were treated once with the indicated HerDox (and competitive inhibitor where indicated) or Dox doses and measured for cell survival at the indicated time points after treatment. * P<0.05 compared to Mock.\nFor all in vitro treatments, cell lines were grown for ˜36 h after plating (104/well in 96-well dishes) to allow receptor re-expression, followed by media replacement with new media containing indicated constructs in reduced volume at the indicated final molarities for 4 h with rocking, followed by supplementation with additional media and continued growth for the indicated time periods. Except for the experiments performed on the U251 glioma cells (which received a one-time treatment), cells received these treatments daily while separate sets of wells were assessed for cell death by either metabolic assay (CellTiter Promega Corporation, Madison, WI, USA) or crystal violet stain each day. Where indicated, cells received competitive inhibitor (eHRG) at 10× molar excess for 30 min-1 h at 4° C. before treatment. Treatment of mixed (HER2+/HER2−) cell cultures with HerDox or Dox (0.5 uM), and cell surface receptor subunit level determination were performed as previously described."}, "[3]": {"system": "MDA-MB-435(HER2+,GFP−)/MDA-MB-231(HER2−,GFP+) cell culture", "test": "Targeting in a mixed HER2+/HER2− cell culture", "format": "cell-based, human", "settings": "0.5 uM, day 2", "experimental": "as §3, with “FIG. 27E, Targeted glioma cell death in vitro.” left out, “Mock. […]” for “Mock.”"}, "[4]": {"test": "TUNEL staining of liver and kidney tissue of treated mice", "settings": "mouse, in vivo", "text": "Control (saline-injected) mice were euthanized early due to tumor ulceration, in compliance with IACUC policy. […] FIG. 30E, TUNEL staining and quantification in liver and kidney tissue obtained from treated mice. Micrographs obtained at 20× magnification (left set of panels) show fluorescently-stained nuclei in apoptotic cells (delineated areas are enlarged in micrographs to the right). Graph summarizes relative fluorescence intensities of each treated tissue (N>200 fields per treatment).\nFixed, sectioned tissues were processed by incubation in a dry 60° C. oven for 1 h followed by sequential submersion in xylenes for 4 min×5, then hydration in 100%, 95%, 90%, 80%, 70% ethanol for 3 min, 2 times each and final submersion in water. After Proteinase K (20 ug/ml in 10 mM Tris pH 7.8) incubation and rinsing in PBS, sections were treated for TUNEL staining following the manufacturer's instructions (XXX) and assessed by confocal fluorescence imaging. Here, 10 TUNEL images at different locations per tissue were acquired using a Leica confocal SPE microscope (20×, ex: 488 nm, and em: 530 nm). Central regions of each tissue were imaged to avoid fixation artifacts. Nuclear fluorescence intensities, reflective of DNA fragmentation, were measured and averaged using ImageJ."}, "[5]": {"settings": "maximum FI, ˜3 h after injection"}, "[6]": {"settings": "single tail vein injection, 0.02 mg/kg Dox"}}, "note": "“Also recorded” adds a separate entry of the source."}
{"molecule": "COc1cccc2c1C(=O)c1c(O)c3c(c(O)c1C2=O)C[C@@](O)(C(=O)CO)C[C@@H]3O[C@H]1C[C@H](N)[C@H](O)[C@H](C)O1.Cl", "note": "[Dox, Doxorubicin-HCl, reference compound]", "values": [{"measurement": "fluorescence in the lungs and skeletal muscle", "setting": "MDA-MB-435 tumors [1]; harvested ˜3 h after injection", "result": "Lower levels of fluorescence"}, {"measurement": "fluorescence in the kidneys", "setting": "MDA-MB-435 tumors [1]; mouse, in vivo", "result": "detectable fluorescence"}, {"measurement": "fluorescence in the liver", "setting": "MDA-MB-435 tumors [1]; mouse, in vivo", "result": "detectable fluorescence"}, {"measurement": "fluorescence in the tumors", "setting": "MDA-MB-435 tumors [1]; mouse, in vivo", "result": "detectable fluorescence"}, {"measurement": "tumor accumulated Dox lower compared to HerDox", "setting": "MDA-MB-435 tumors [1]; mouse, in vivo", "result": 1000, "unit": "fluorescence units"}, {"measurement": "tumor growth", "setting": "MDA-MB-435 tumors [2]", "result": "low efficacy"}, {"measurement": "tumor ablation compared with HerDox", "setting": "MDA-MB-435 tumors [2]; 10× higher Dox dose (0.04 mg/kg)", "result": "slightly less effective"}, {"measurement": "delivery to U87 tumors higher compared to MDA-MB-435 tumors", "setting": "U87 human glioma tumors; mouse, in vivo, iv", "result": "200-300 fluorescence units per tissue"}, {"measurement": "toxicity / survival", "setting": "MDA-MB-435 (HER2+) cells", "result": "no preference"}, {"measurement": "cell growth in mixed cell culture", "setting": "[3]", "result": "reduced efficacy"}]}
{"molecule": "B1", "values": [{"measurement": "fluorescence in heart, spleen, lungs, and skeletal muscle", "setting": "MDA-MB-435 tumors [1]; harvested ˜3 h after injection", "result": "did not exhibit any fluorescence; also recorded: no detectable fluorescence"}, {"measurement": "fluorescence in the kidneys", "setting": "MDA-MB-435 tumors [1]; harvested ˜3 h after injection", "result": "barely detectable"}, {"measurement": "fluorescence in the liver", "setting": "MDA-MB-435 tumors [1]; harvested ˜3 h after injection", "result": "substantially lower levels of fluorescence"}, {"measurement": "fluorescence in the tumors", "setting": "MDA-MB-435 tumors [1]; harvested ˜3 h after injection", "result": "intense fluorescence"}, {"measurement": "kidney FI lower than tumors", "setting": "MDA-MB-435 tumors [1]; [5]", "result": 65, "unit": "%"}, {"measurement": "liver FI lower than tumors", "setting": "MDA-MB-435 tumors [1]; [5]", "result": 45, "unit": "%"}, {"measurement": "time of kidney entry", "setting": "MDA-MB-435 tumors [1]; pharmacokinetics, single i.v. injection", "result": "≤ 10", "unit": "min"}, {"measurement": "time detectable in the tumors after injection", "setting": "MDA-MB-435 tumors [1]; [6]", "result": "up to 100 min"}, {"measurement": "time of accumulation at the tumors after injection", "setting": "MDA-MB-435 tumors [1]; [6]", "result": "≤ 20", "unit": "min"}, {"measurement": "tumor accumulation higher compared to normal tissue", "setting": "MDA-MB-435 tumors [1]; up to 24 h, heart, liver, muscle, spleen, lung, kidneys", "result": "500-1000 fluorescence units higher/tissue"}, {"measurement": "tumor growth", "setting": "MDA-MB-435 tumors [2]", "result": "ablation of tumor growth"}, {"measurement": "dose for tumor ablation lower compared to untargeted doxorubicin", "setting": "MDA-MB-435 tumors [2]; intravenous delivery", "result": "> 10", "unit": "×"}, {"measurement": "apoptosis in the kidney (TUNEL)", "setting": "[4]", "result": "Neither Dox nor HerDox showed substantial apoptosis"}, {"measurement": "apoptosis in the liver (TUNEL)", "setting": "[4]", "result": "did not; also recorded: negligible apoptosis"}, {"measurement": "delivery to U87 tumors lower compared to MDA-MB-435 tumor-bearing mice", "setting": "U87 human glioma tumors; i.v.", "result": "~50", "unit": "%"}, {"measurement": "toxicity / survival", "setting": "MDA-MB-435 (HER2+) cells", "result": "significant toxicity"}, {"measurement": "cell growth in mixed cell culture", "setting": "[3]", "result": "substantially reduced HER2+ but not HER2− cell growth"}]}
